Assay results: PMC10786891, “Massively parallel profiling of RNA-targeting CRISPR-Cas13d”

T1: EsCas13d, nuclease-dead (Eubacterium siraeum, UniProt B0MS50, R295A;H300A;R849A;H854A)
T1 sequence: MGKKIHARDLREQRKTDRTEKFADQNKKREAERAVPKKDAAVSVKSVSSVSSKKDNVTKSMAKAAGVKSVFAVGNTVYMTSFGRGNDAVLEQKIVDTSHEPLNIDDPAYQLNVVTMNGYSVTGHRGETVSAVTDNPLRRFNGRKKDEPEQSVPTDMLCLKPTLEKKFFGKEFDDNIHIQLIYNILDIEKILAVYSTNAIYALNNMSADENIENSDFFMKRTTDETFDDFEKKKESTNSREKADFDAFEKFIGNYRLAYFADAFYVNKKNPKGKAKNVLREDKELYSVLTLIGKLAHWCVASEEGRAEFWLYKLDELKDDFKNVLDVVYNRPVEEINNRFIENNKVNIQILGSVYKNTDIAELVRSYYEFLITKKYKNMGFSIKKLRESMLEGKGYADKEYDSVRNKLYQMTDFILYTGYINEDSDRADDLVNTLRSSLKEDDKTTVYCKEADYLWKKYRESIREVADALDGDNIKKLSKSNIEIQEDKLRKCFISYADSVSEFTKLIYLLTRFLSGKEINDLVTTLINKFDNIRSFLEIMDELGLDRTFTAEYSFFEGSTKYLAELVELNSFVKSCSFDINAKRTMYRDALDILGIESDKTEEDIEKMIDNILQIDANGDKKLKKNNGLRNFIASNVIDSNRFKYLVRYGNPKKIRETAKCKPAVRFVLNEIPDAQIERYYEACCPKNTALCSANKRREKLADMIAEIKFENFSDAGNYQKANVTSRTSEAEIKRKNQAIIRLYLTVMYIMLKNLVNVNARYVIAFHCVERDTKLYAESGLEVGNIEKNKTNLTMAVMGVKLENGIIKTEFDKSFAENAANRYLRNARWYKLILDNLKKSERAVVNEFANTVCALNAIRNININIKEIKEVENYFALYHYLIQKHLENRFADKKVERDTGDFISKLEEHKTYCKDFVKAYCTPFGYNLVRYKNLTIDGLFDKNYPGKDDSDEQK


Biological target: T1, EsCas13d, nuclease-dead
Assay: crRNA (strand 1, pre-loaded); Mg2+; 40 mM Tris-HCl pH 7.5, 150 mM NaCl, 6 mM MgCl2, 1 mM DTT, 0.1% Tween-20, 0.2 mg/ml BSA; 25 C; 10 min per concentration, then washed
Conditions: tags: His6-TwinStrep-SUMO cleaved; N-terminal SNAP kept (SNAP-Surface 488); label: 3' end held by stalled T7 RNA polymerase

| Binder | Kd [nM] |
| --- | --- |
| target 1 insA 3' of 15,insG 3' of 11 (mixed) RNA 1: CACCCGUGCAAAAAUGCAGGGGUCUAAAACUGAGCGGAUAACCUCUCUAUGG RNA 2: GGGAAUGGAUCCACAUCUACGAAUUCGUACCAUAGAGAAGGUGUAUCCGCUCACCGAGAUCGGAAGAGCACACGU | 24 ± 4 |
| target 1 A1G,C4G (mixed) RNA 1: CACCCGUGCAAAAAUGCAGGGGUCUAAAACUGAGCGGAUAACCUCUCUAUGG RNA 2: GGGAAUGGAUCCACAUCUACGAAUUCGUACCAUAGAGAGGUUAUCCGGUCGCCGAGAUCGGAAGAGCACACGU | 5.2 ± 0.34 |
| target 1 C6A,A18G (mixed) RNA 1: CACCCGUGCAAAAAUGCAGGGGUCUAAAACUGAGCGGAUAACCUCUCUAUGG RNA 2: GGGAAUGGAUCCACAUCUACGAAUUCGUACCAUGGAGAGGUUAUCAGCUCACCGAGAUCGGAAGAGCACACGU | 98 ± 20 |
| target 1 U8C,U19A (mixed) RNA 1: CACCCGUGCAAAAAUGCAGGGGUCUAAAACUGAGCGGAUAACCUCUCUAUGG RNA 2: GGGAAUGGAUCCACAUCUACGAAUUCGUACCAAAGAGAGGUUACCCGCUCACCGAGAUCGGAAGAGCACACGU | 59 ± 9 |
| target 1 del3 (mixed) RNA 1: CACCCGUGCAAAAAUGCAGGGGUCUAAAACUGAGCGGAUAACCUCUCUAUGG RNA 2: GGGAAUGGAUCCACAUCUACGAAUUCGUACCAUAGAGAGGUUAUCCGCCACCGAGAUCGGAAGAGCACACGU | 28 ± 5 |
| target 1 U11G,C21U (mixed) RNA 1: CACCCGUGCAAAAAUGCAGGGGUCUAAAACUGAGCGGAUAACCUCUCUAUGG RNA 2: GGGAAUGGAUCCACAUCUACGAAUUCGUACUAUAGAGAGGGUAUCCGCUCACCGAGAUCGGAAGAGCACACGU | 9.4 ± 0.5 |
| target 1 C2U,U8G (mixed) RNA 1: CACCCGUGCAAAAAUGCAGGGGUCUAAAACUGAGCGGAUAACCUCUCUAUGG RNA 2: GGGAAUGGAUCCACAUCUACGAAUUCGUACCAUAGAGAGGUUAGCCGCUUACCGAGAUCGGAAGAGCACACGU | 17.1 ± 0.9 |
| target 1 insU 3' of 13,insC 3' of 11 (mixed) RNA 1: CACCCGUGCAAAAAUGCAGGGGUCUAAAACUGAGCGGAUAACCUCUCUAUGG RNA 2: GGGAAUGGAUCCACAUCUACGAAUUCGUACCAUAGAGAGUGUCUAUCCGCUCACCGAGAUCGGAAGAGCACACGU | 29 ± 7 |
| target 1 insG 3' of 8,insA 3' of 8 (mixed) RNA 1: CACCCGUGCAAAAAUGCAGGGGUCUAAAACUGAGCGGAUAACCUCUCUAUGG RNA 2: GGGAAUGGAUCCACAUCUACGAAUUCGUACCAUAGAGAGGUUAUGACCGCUCACCGAGAUCGGAAGAGCACACGU | 27.2 ± 1.4 |
| target 1 insC 3' of 19,insU 3' of 15 (mixed) RNA 1: CACCCGUGCAAAAAUGCAGGGGUCUAAAACUGAGCGGAUAACCUCUCUAUGG RNA 2: GGGAAUGGAUCCACAUCUACGAAUUCGUACCAUCAGAGUAGGUUAUCCGCUCACCGAGAUCGGAAGAGCACACGU | 62 ± 26 |
| target 1 A9C,U10C (mixed) RNA 1: CACCCGUGCAAAAAUGCAGGGGUCUAAAACUGAGCGGAUAACCUCUCUAUGG RNA 2: GGGAAUGGAUCCACAUCUACGAAUUCGUACCAUAGAGAGGUCCUCCGCUCACCGAGAUCGGAAGAGCACACGU | 15.1 ± 1.5 |
| target 1 insC 3' of 14,insG 3' of 1 (mixed) RNA 1: CACCCGUGCAAAAAUGCAGGGGUCUAAAACUGAGCGGAUAACCUCUCUAUGG RNA 2: GGGAAUGGAUCCACAUCUACGAAUUCGUACCAUAGAGACGGUUAUCCGCUCAGCCGAGAUCGGAAGAGCACACGU | 50 ± 12 |
| target 1 A1C,C6G (mixed) RNA 1: CACCCGUGCAAAAAUGCAGGGGUCUAAAACUGAGCGGAUAACCUCUCUAUGG RNA 2: GGGAAUGGAUCCACAUCUACGAAUUCGUACCAUAGAGAGGUUAUCGGCUCCCCGAGAUCGGAAGAGCACACGU | 12.1 ± 1.1 |
| target 1 insC 3' of 8,insU 3' of 4 (mixed) RNA 1: CACCCGUGCAAAAAUGCAGGGGUCUAAAACUGAGCGGAUAACCUCUCUAUGG RNA 2: GGGAAUGGAUCCACAUCUACGAAUUCGUACCAUAGAGAGGUUAUCCCGCUUCACCGAGAUCGGAAGAGCACACGU | 12.2 ± 1 |
| target 1 insU 3' of 21,insA 3' of 8 (mixed) RNA 1: CACCCGUGCAAAAAUGCAGGGGUCUAAAACUGAGCGGAUAACCUCUCUAUGG RNA 2: GGGAAUGGAUCCACAUCUACGAAUUCGUACCUAUAGAGAGGUUAUACCGCUCACCGAGAUCGGAAGAGCACACGU | 48 ± 4 |
| target 1 insC 3' of 17,insG 3' of 1 (mixed) RNA 1: CACCCGUGCAAAAAUGCAGGGGUCUAAAACUGAGCGGAUAACCUCUCUAUGG RNA 2: GGGAAUGGAUCCACAUCUACGAAUUCGUACCAUAGCAGAGGUUAUCCGCUCAGCCGAGAUCGGAAGAGCACACGU | 44 ± 16 |
| target 1 A1C,C4G (mixed) RNA 1: CACCCGUGCAAAAAUGCAGGGGUCUAAAACUGAGCGGAUAACCUCUCUAUGG RNA 2: GGGAAUGGAUCCACAUCUACGAAUUCGUACCAUAGAGAGGUUAUCCGGUCCCCGAGAUCGGAAGAGCACACGU | 10.7 ± 1 |
| target 1 C2A,U3G (mixed) RNA 1: CACCCGUGCAAAAAUGCAGGGGUCUAAAACUGAGCGGAUAACCUCUCUAUGG RNA 2: GGGAAUGGAUCCACAUCUACGAAUUCGUACCAUAGAGAGGUUAUCCGCGAACCGAGAUCGGAAGAGCACACGU | 8.6 ± 0.7 |
| target 1 U3G,G17A (mixed) RNA 1: CACCCGUGCAAAAAUGCAGGGGUCUAAAACUGAGCGGAUAACCUCUCUAUGG RNA 2: GGGAAUGGAUCCACAUCUACGAAUUCGUACCAUAAAGAGGUUAUCCGCGCACCGAGAUCGGAAGAGCACACGU | 37 ± 4 |
| target 1 G17A,U19G (mixed) RNA 1: CACCCGUGCAAAAAUGCAGGGGUCUAAAACUGAGCGGAUAACCUCUCUAUGG RNA 2: GGGAAUGGAUCCACAUCUACGAAUUCGUACCAGAAAGAGGUUAUCCGCUCACCGAGAUCGGAAGAGCACACGU | 51 ± 6 |
| target 1 G5U,U11A (mixed) RNA 1: CACCCGUGCAAAAAUGCAGGGGUCUAAAACUGAGCGGAUAACCUCUCUAUGG RNA 2: GGGAAUGGAUCCACAUCUACGAAUUCGUACCAUAGAGAGGAUAUCCUCUCACCGAGAUCGGAAGAGCACACGU | ~60 |
| target 1 insC 3' of 14,insU 3' of 1 (mixed) RNA 1: CACCCGUGCAAAAAUGCAGGGGUCUAAAACUGAGCGGAUAACCUCUCUAUGG RNA 2: GGGAAUGGAUCCACAUCUACGAAUUCGUACCAUAGAGACGGUUAUCCGCUCAUCCGAGAUCGGAAGAGCACACGU | ~50 |
| target 1 A16C,G17C (mixed) RNA 1: CACCCGUGCAAAAAUGCAGGGGUCUAAAACUGAGCGGAUAACCUCUCUAUGG RNA 2: GGGAAUGGAUCCACAUCUACGAAUUCGUACCAUACCGAGGUUAUCCGCUCACCGAGAUCGGAAGAGCACACGU | ~100 |
| target 1 insC 3' of 14,insC 3' of 1 (mixed) RNA 1: CACCCGUGCAAAAAUGCAGGGGUCUAAAACUGAGCGGAUAACCUCUCUAUGG RNA 2: GGGAAUGGAUCCACAUCUACGAAUUCGUACCAUAGAGACGGUUAUCCGCUCACCCGAGAUCGGAAGAGCACACGU | 50 ± 11 |
| target 1 del15,del22 (mixed) RNA 1: CACCCGUGCAAAAAUGCAGGGGUCUAAAACUGAGCGGAUAACCUCUCUAUGG RNA 2: GGGAAUGGAUCCACAUCUACGAAUUCGUACAUAGAAGGUUAUCCGCUCACCGAGAUCGGAAGAGCACACGU | 54 ± 23 |
| target 1 insG 3' of 22,insA 3' of 11 (mixed) RNA 1: CACCCGUGCAAAAAUGCAGGGGUCUAAAACUGAGCGGAUAACCUCUCUAUGG RNA 2: GGGAAUGGAUCCACAUCUACGAAUUCGUACGCAUAGAGAGGUAUAUCCGCUCACCGAGAUCGGAAGAGCACACGU | 33 ± 4 |
| target 1 U8G,U10G (mixed) RNA 1: CACCCGUGCAAAAAUGCAGGGGUCUAAAACUGAGCGGAUAACCUCUCUAUGG RNA 2: GGGAAUGGAUCCACAUCUACGAAUUCGUACCAUAGAGAGGUGAGCCGCUCACCGAGAUCGGAAGAGCACACGU | 20 ± 1.1 |
| target 1 G5C,A14C (mixed) RNA 1: CACCCGUGCAAAAAUGCAGGGGUCUAAAACUGAGCGGAUAACCUCUCUAUGG RNA 2: GGGAAUGGAUCCACAUCUACGAAUUCGUACCAUAGAGCGGUUAUCCCCUCACCGAGAUCGGAAGAGCACACGU | 14.5 ± 1.5 |
